In the supplement of paper PMC12783771:
± gives the standard deviation of the averaged measurements.

B1: library; numbered along this chain (parent)
chain: MNIQIGELAKRTACPVVTIRFYEQEGLLPPPGRSRGNFRLYGEEHVERLQFIRHCRSLDMPLSDVRTLLSYRKRPDQDCGEVNMLLDEHIRQVESRIGALLELKHHLVELREACSGARPAQSCGILQGLSDCVCDTRGTTAHPSD

How the values were obtained:
[1] = variants of: B1; assay: sfGFP reporter fluorescence (15 h) (µM FITC); higher = higher leak; conditions: library round: Round 0; ligand: none
Summary of the method: (§1)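 An Echo normalized PCR-made linear PbrR templates to 5 nM and assembled 1 μL reactions in BL21 Star (DE3) PANOx-SP extract carrying the pPbrR-sfGFP reporter plasmid and 30 μg/mL GamS. Reactions received 1 µM lead chloride, 30 µM zinc acetate or no metal and stood 15 hr at 30 °C. Fluorescence at 485/528 nm (Synergy Neo2) was converted with FITC standard curves made in 50 mM sodium borate pH 8.5. Endpoint sfGFP signal is given in µM FITC, from up to three biological replicates.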

[2] = variants of: B1; assay: sfGFP reporter fluorescence (15 h) (µM FITC); higher = stronger transcriptional activation; conditions: library round: Round 0
Summary of the method: as §1

| Variant | sfGFP reporter fluorescence [1] | sfGFP reporter fluorescence ([2]; ligand: 1 µM Pb) | sfGFP reporter fluorescence ([2]; ligand: 30 µM Zn) |
| --- | --- | --- | --- |
| I97W | 0.0585 ± 0.006 | 0.0616 ± 0.0015 | 0.176 ± 0.0073 |
| I97Q | 0.057 ± 0.0029 | 0.057 ± 0.0034 | 0.287 ± 0.0088 |
| G98A | 0.0614 ± 0.00078 | 0.0762 ± 0.0021 | 0.793 ± 0.06 |
| K104V L107C G128I | 0.483 ± 0.024 | 2.5 ± 0.27 | 3.37 ± 0.23 |
| K104V L107C G128M | 0.701 ± 0.023 | 3.1 ± 0.15 | 4.118 ± 0.038 |
| K104W | 0.0574 ± 0.0096 | 0.0795 ± 0.013 | 0.607 ± 0.096 |
| K104P | 0.0509 ± 0.0073 | 0.0544 ± 0.0054 | 0.08191 ± 0.00078 |
| K104T | 0.0619 ± 0.0021 | 0.0925 ± 0.015 | 0.865 ± 0.13 |
| K104H | 0.0762 ± 0.0036 | 0.189 ± 0.081 | 1.56 ± 0.38 |
| K104E | 0.0552 ± 0.0086 | 0.0691 ± 0.015 | 0.635 ± 0.12 |
| K104L | 0.0592 ± 0.0049 | 0.135 ± 0.03 | 1.11 ± 0.054 |
| K104I | 0.0616 ± 0.0057 | 0.165 ± 0.044 | 1.22 ± 0.053 |
| K104C | 0.0614 ± 0.0091 | 0.133 ± 0.026 | 1.32 ± 0.18 |
| K104Y | 0.059 ± 0.0083 | 0.113 ± 0.028 | 1.09 ± 0.13 |
| K104A | 0.05974 ± 0.00052 | 0.0759 ± 0.0021 | 0.591 ± 0.037 |
| K104Q | 0.0601 ± 0.0026 | 0.0832 ± 0.015 | 0.901 ± 0.022 |
| K104G | 0.0526 ± 0.0075 | 0.0524 ± 0.0057 | 0.22 ± 0.0034 |
| K104N | 0.0557 ± 0.0073 | 0.0823 ± 0.025 | 0.879 ± 0.15 |
| K104R | 0.0621 ± 0.006 | 0.0958 ± 0.024 | 0.946 ± 0.16 |
| K104F | 0.0581 ± 0.011 | 0.117 ± 0.029 | 0.889 ± 0.037 |
| K104V | 0.0652 ± 0.0088 | 0.173 ± 0.039 | 1.35 ± 0.19 |
| K104S | 0.0612 ± 0.0021 | 0.092 ± 0.02 | 1 ± 0.052 |
| K104D | 0.0592 ± 0.006 | 0.138 ± 0.046 | 1.06 ± 0.18 |

| Variant | sfGFP reporter fluorescence [1] | sfGFP reporter fluorescence ([2]; ligand: 1 µM Pb) | sfGFP reporter fluorescence ([2]; ligand: 30 µM Zn) |
| --- | --- | --- | --- |
| K104M | 0.059 ± 0.0088 | 0.111 ± 0.035 | 1.13 ± 0.15 |
| C114H | 0.0581 ± 0.0023 | 0.0586 | 0.0563 ± 0.0034 |
| C114W | 0.0586 ± 0.001 | 0.0592 ± 0.0013 | 0.05241 ± 0.00052 |
| C114D | 0.0585 ± 0.00078 | 0.0588 ± 0.0018 | 0.0564 ± 0.0036 |
| C114V | 0.0566 ± 0.00078 | 0.0555 ± 0.00078 | 0.05186 ± 0.00026 |
| C114G | 0.052 ± 0.0015 | 0.0541 ± 0.00078 | 0.05 ± 0.00078 |
| C114L | 0.0561 | 0.0583 ± 0.0015 | 0.0531 ± 0.0015 |
| C114Y | 0.0585 ± 0.0018 | 0.0586 | 0.0544 ± 0.0013 |
| C114K | 0.0583 ± 0.0031 | 0.0586 ± 0.001 | 0.0563 ± 0.0029 |
| C114S | 0.05754 ± 0.00052 | 0.05809 ± 0.00026 | 0.0544 ± 0.0018 |
| C114P | 0.0552 ± 0.0013 | 0.0563 ± 0.0013 | 0.05204 ± 0.00052 |
| C114A | 0.05607 ± 0.00052 | 0.0559 ± 0.0013 | 0.0542 |
| C114I | 0.05717 ± 0.00052 | 0.0942 ± 0.0015 | 0.863 ± 0.012 |
| C114F | 0.0572 ± 0.0015 | 0.0577 ± 0.00078 | 0.053 ± 0.0013 |
| C114E | 0.05699 ± 0.00026 | 0.0579 ± 0.001 | 0.0533 ± 0.0023 |
| C114R | 0.0594 ± 0.001 | 0.06029 ± 0.00026 | 0.0564 ± 0.0015 |
| C114T | 0.0583 ± 0.0015 | 0.05864 ± 0.00052 | 0.0544 ± 0.0039 |
| C114N | 0.0583 ± 0.0021 | 0.0579 ± 0.0015 | 0.0546 ± 0.0015 |
| C114M | 0.05937 ± 0.00052 | 0.0603 ± 0.0013 | 0.0616 ± 0.0015 |
| C114Q | 0.0568 ± 0.001 | 0.05864 ± 0.00052 | 0.0533 ± 0.0018 |
| K104V L107A | 0.166 ± 0.0088 | 0.817 ± 0.042 | 2.18 ± 0.12 |
| K104V L107C | 0.184 ± 0.0062 | 1.13 ± 0.23 | 2.31 ± 0.5 |
